Test results as given in the supplement of paper PMC10567573.

B1: KLHDC10 (parent)
chain: PSLLELAWEKLLAAFPNLANLSRT
B2: PLD5 (parent)
chain: WIVDKQHVYIGSAGLDWQSLGQMK

Variants of: B1
Experiment: protein stability index of a GFP-peptide fusion (GPS, HEK-293T) (PSI 1-6); higher = more stable
Settings: c terminus: a fixed tail appended
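Also: lentivirally expressed fusions sorted by FACS into six bins by GFP to DsRed ratio, PSI derived from sequencing read proportions per bin multiplied by bin number.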

Protein stability index: each site, then its substitutions
E5: G 2.42, A 2.28, S 3.15
R23: F 1.96, G 2.76, I 1.78
L12: N 2.32
A19: Y 2.02, N 2.29, M 2.1
L4: T 3.05, F 2.75
L6: H 1.59, W 3.58
W8: Q 2.88, D 2.37
S2: D 2.67
A7: E 2.74, H 1.33
S22: R 2.71, K 2.57
A13: F 1.46, G 2.06, E 1.99, K 1.95
L18: Y 1.86, I 2.08, M 1.84
A14: M 2.19, F 2.82
L11: A 2.36, P 2.39
L3: D 2.16
P16: S 1.4
F15: V 2.38
T24: I 2.03

Variants of: B2
Experiment: as above
Settings: c terminus: a fixed tail appended

Protein stability index of substitutions, site by site:
W1: A 2.11, C 1.59, D 2.15, E 2.24, F 2.4, G 2.67, H 2.12, I 3.17, K 2.32, L 2.12, M 1.43, N 2.19, P 2.32, Q 2.5, R 2.77, S 2.2, T 2.41, V 1.79, Y 2.23
I2: A 2.32, C 1.83, D 2.16, E 2.18, F 1.64, G 1.87, H 1.88, K 1.9, L 1.88, M 1.5, N 1.61, P 2.65, Q 2.48, R 2.17, S 2.08, T 1.46, V 1.39, W 1.86, Y 1.82
V3: A 1.86, C 1.6, D 2.02, E 2.09, F 1.96, G 2.1, H 1.74, I 2.64, K 1.84, L 2.01, M 1.5, N 2.35, P 1.97, Q 1.83, R 1.52, S 2.09, T 1.59, W 2.13, Y 1.56
D4: A 1.83, E 1.39, G 1.39, H 2.37, K 4.58, L 1.84, M 2.12, N 3.09, P 1.13, Q 1.45, R 3.94, S 2.29, T 4.09, V 3.83, W 1.96
K5: A 4.17, C 2.29, D 1.42, E 2.42, F 4.11, G 1.8, H 1.55, I 3.22, N 2.12, P 1.74, Q 1.74, R 1.94, S 1.07, T 2.98, W 2.34, Y 1.61
Q6: A 1.51, C 1, D 1.4, E 1.95, F 2.05, G 3.38, H 2.1, K 1.66, L 2.87, M 2.63, N 1.58, P 1.5, R 2.3, S 1.37, T 1.84, V 2.08, W 4.19, Y 1.41
H7: A 2.63, C 1.37, D 1.98, E 1.42, G 2.17, K 1.54, M 2.6, N 1.48, P 2.27, Q 1.96, R 2.36, S 2.26, T 2.26, W 3.59, Y 2.6
V8: A 1.66, C 1.58, D 1.5, E 2.01, F 1.92, G 1.35, H 1.54, I 2.31, K 1.9, L 1.93, M 2.45, N 2.01, P 2.06, Q 2.11, R 4.04, S 1.69, T 1.81, W 2.43, Y 1.25
Y9: A 2.33, C 1.54, D 1.91, E 2.13, F 3.1, G 1.96, H 1.75, I 1.45, K 1.33, L 1.64, M 1.58, N 1.81, P 2.48, Q 2.14, R 1.41, S 2.01, T 2.1, V 1.93, W 1.75
I10: A 1.85, C 1.64, D 2.41, E 2.22, F 2.26, G 1.64, H 1.93, K 2.27, L 2.41, M 2.11, N 2.16, P 1.79, Q 1.83, R 1.65, S 1.73, T 1.81, V 1.92, W 1.96, Y 1.73
G11: A 1.69, C 2.07, D 1.46, E 2.82, F 2.11, H 1.92, I 2.71, K 1.26, L 2.88, M 2.25, N 2.32, P 2.12, Q 1.53, R 2.02, S 2.22, T 1.71, V 2.02, W 2.27, Y 3.22
S12: A 1.65, D 1.57, E 1.52, F 3.2, G 1.72, H 1.62, I 3.48, K 2.07, L 2.45, M 1.31, N 1.92, P 1.89, Q 1.6, R 1.6, T 1.18, V 2.35, W 1.92, Y 1.73
A13: C 2.08, D 1.33, E 1.72, F 2.5, G 2.05, H 1.45, I 3.29, K 1.96, L 2.44, M 1.9, N 2.11, P 1.55, Q 1.95, R 3.3, S 2.14, T 2.02, V 3.68, W 1.56, Y 1.98
G14: A 1.51, C 2.19, D 2.12, E 1.54, F 2.02, H 2.29, I 2.97, K 2.85, L 1.64, M 1.63, N 2.15, P 2.23, Q 1.64, R 2.29, S 2.16, T 1.25, V 2.6, W 3.18, Y 1.79
L15: A 1.8, C 1.47, D 1.92, E 2.13, F 1.14, G 2.2, H 1.67, I 1.31, K 2.02, M 1.34, N 2.01, P 1.99, Q 1.47, R 1.55, S 1.7, T 2, V 1.54, W 1.51, Y 1.67
D16: A 3.8, C 2.39, E 2.32, F 2.16, G 2.06, H 1.44, I 1.94, K 1.68, L 2.44, M 2.83, N 2.33, P 1.79, Q 1.16, R 1.4, S 2.26, T 3.02, W 3.03, Y 2.52
W17: A 1.97, C 1.73, D 1.94, E 2.1, F 1.91, G 2.17, H 2.35, I 1.63
